In the experiment the target is modified αM subunit in which the αMI-domain was deleted (I-less form of Mac-1) (human) (UniProt P11215). As to the kind of experiment: co-IP.

Here are results for one substance from publication doi:10.1101/2022.09.30.510402.

Sequence of CD47 (Q08722 19-323): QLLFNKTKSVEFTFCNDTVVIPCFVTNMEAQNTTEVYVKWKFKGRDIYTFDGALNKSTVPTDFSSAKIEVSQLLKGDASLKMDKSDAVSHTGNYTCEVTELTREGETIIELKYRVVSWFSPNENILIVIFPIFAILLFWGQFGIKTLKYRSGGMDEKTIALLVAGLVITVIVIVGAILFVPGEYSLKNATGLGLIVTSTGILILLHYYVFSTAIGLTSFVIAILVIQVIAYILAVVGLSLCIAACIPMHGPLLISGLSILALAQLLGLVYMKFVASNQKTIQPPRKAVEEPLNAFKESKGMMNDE

Take “CD47 (from UniProt Q08722 19-323) (natural protein)”: the fold more CD47 bound than by the whole integrin was determined as 1.5.
